Here are results for seven molecules from patent US20090118167A1, “Selective Vpac2 Receptor Peptide Agonists” (Eli Lilly and Company Patent Division, priority 2004, published 2009).

Square brackets hold non-standard residues; d marks the D form. Ends that are not written are not given here. Nle = CCCC[C@H](N)C(=O)O; Orn = NCCC[C@H](N)C(=O)O; Aib = CC(C)(N)C(=O)O

One data set concerns the target T1, human PAC1 (Homo sapiens, UniProt P41586).
T1 construct: expressed in transfected cells; membranes)
T1 sequence (P41586 21-468): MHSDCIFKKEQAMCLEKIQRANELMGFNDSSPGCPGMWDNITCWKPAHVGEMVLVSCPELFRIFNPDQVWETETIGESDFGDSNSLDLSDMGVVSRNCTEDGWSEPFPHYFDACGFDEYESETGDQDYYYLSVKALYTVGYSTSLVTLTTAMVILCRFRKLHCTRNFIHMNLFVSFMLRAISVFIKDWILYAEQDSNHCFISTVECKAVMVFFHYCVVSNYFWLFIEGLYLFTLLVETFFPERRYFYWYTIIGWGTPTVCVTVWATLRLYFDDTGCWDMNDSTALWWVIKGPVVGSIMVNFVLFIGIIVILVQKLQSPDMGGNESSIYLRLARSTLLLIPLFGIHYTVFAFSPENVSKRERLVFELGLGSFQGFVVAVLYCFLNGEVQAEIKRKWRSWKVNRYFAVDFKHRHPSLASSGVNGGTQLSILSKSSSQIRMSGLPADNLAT
Put plainly: Filter binding assay, 125I-labeled PACAP-27 tracer. Particulars: membranes from cells transiently transfected with human PAC1; read-out: Human receptor binding IC50 PAC1. As for the experimental part:
(§1) In order to prepare the filter plates, the presoak solution is aspirated by vacuum filtration. The plates are flushed twice with 200 μL flush buffer. 200 μL blocking buffer is added to the filter plate. The filter plate is then incubated with 200 μL presoak solution for 1 hour at room temperature.
(§2) The assay plate is filled with 25 μL assay buffer, 25 μL membranes (2.5 μg) suspended in assay buffer, 25 μL compound (agonist) in assay buffer, and 25 μL tracer (about 40000 cpm) in assay buffer. The filled plate is incubated for 1 hour with shaking.
(§3) The transfer from assay plate to filter plate is conducted. The blocking buffer is aspirated by vacuum filtration and washed two times with flush buffer. 90 μL is transferred from the assay plate to the filter plate. The 90 μL transferred from assay plate is aspirated and washed three times with 200 μL flush buffer. The plastic support is removed. It is dried for 1 hour at 60° C. 30 μL Microscint is added. The count is performed.
(§4) Values reported are single results or the mean of two or more independent runs.

The conditions of data set [1]: rat, in vivo, sc, 0.1 mg/kg. As to the method:
Healthy Fisher 344 rats (3 animals per group) are injected with 100 μg compound/kg (compound amount based on peptide content and dissolved in PBS buffer). […] PK parameters are then calculated using a model-independent method (WinNonlin Pro, Pharsight Corp., Mountain View, Calif., USA).

For another data set, the target named is T2, human VPAC1 (Homo sapiens, UniProt P32241).
T2 construct: expressed in transfected cells
T2 sequence (P32241 31-457): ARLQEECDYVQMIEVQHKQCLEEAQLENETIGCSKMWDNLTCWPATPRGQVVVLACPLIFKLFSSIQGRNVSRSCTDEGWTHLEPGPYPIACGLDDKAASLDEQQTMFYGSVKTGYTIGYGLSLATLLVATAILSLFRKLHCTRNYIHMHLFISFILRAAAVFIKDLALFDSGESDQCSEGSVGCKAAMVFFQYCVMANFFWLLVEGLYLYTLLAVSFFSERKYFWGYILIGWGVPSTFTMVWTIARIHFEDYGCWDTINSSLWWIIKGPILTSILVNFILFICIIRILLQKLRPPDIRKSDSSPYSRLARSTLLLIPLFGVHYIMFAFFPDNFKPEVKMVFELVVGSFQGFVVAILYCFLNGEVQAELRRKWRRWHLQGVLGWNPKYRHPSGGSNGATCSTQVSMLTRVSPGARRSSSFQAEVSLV
The data set is described as follows: Filter binding assay, 125I-labeled VIP tracer. As to conditions: membranes from cells transiently transfected with human VPAC1; read-out: Human receptor binding IC50 VPAC1. As to the method:
as §1, §2, §3, §4

A further data set has as its system Normal Wistar rats. The data set is described as follows: Intravenous glucose tolerance test (IVGTT). The class given is in vivo, rat. As to conditions: 10 min between glucose and compound. As for the experimental part: Intravenous glucose tolerance test (IVGTT): Normal Wistar rats are fasted overnight and are anesthetized prior to the experiment. A blood sampling catheter is inserted into the rats. The compound is given in the jugular vein. Blood samples are taken from the carotid artery. A blood sample is drawn immediately prior to the injection of glucose along with the compound. After the initial blood sample, glucose mixed with compound is injected intravenously (i.v.). Compound may also be injected intravenously or subcutaneously prior to the glucose challenge. A glucose challenge of 0.5 g/kg body weight is given, injecting a total of 1.5 mL vehicle with glucose and agonist per kg body weight. The peptide concentrations are varied to produce the desired dose in μg/kg. Blood samples are drawn at 2, 4, 6 and 10 minutes after giving glucose. The control group of animals receives the same vehicle along with glucose, but with no compound added. In some instances, a 30 minute post-glucose blood sample is drawn. Aprotinin is added to the blood sample (250-500 kIU/ml blood). The serum is then analyzed for glucose and insulin using standard methodologies.
The assay uses a formulated and calibrated peptide stock in PBS. Normally, this stock is a prediluted 100 μM stock. However, a more concentrated stock with approximately 1 mg agonist per mL is used. The specific concentration is always known. Variability in the maximal response is mostly due to variability in the vehicle dose.

The target of the next data set is T3, rat VPAC1 receptor (rat, UniProt P30083 31-459).
T3 sequence (looked up): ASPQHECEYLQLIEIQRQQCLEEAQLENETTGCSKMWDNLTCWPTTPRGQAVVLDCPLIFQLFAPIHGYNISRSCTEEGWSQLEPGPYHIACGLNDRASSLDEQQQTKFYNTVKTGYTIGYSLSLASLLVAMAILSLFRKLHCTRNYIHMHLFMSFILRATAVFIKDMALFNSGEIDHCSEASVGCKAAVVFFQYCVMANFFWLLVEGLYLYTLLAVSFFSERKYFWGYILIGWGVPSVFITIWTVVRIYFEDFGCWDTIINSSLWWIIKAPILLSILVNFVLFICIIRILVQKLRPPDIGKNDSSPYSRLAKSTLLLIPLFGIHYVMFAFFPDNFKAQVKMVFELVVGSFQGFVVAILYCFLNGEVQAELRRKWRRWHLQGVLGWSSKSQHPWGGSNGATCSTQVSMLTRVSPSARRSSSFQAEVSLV
The data set is described as follows: cell-based or functional assay.

A further data set addresses T4, rat VPAC2 receptor (rat, UniProt P35000 23-437).
T4 sequence (looked up): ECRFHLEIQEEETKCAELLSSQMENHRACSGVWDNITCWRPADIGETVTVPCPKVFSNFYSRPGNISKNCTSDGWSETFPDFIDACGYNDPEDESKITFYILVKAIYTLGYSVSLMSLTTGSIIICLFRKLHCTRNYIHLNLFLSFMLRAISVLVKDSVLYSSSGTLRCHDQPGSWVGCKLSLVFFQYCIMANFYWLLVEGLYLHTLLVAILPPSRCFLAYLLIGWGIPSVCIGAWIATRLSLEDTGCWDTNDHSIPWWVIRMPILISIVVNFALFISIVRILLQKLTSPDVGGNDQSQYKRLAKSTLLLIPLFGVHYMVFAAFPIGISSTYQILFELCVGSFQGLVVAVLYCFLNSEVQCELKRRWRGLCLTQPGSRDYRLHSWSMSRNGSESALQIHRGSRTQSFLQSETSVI
The data set is described as follows: cell-based or functional assay.

Data set [2] has as its target T5, human VPAC2 receptor (human, UniProt P41587 24-438).
T5 sequence (looked up): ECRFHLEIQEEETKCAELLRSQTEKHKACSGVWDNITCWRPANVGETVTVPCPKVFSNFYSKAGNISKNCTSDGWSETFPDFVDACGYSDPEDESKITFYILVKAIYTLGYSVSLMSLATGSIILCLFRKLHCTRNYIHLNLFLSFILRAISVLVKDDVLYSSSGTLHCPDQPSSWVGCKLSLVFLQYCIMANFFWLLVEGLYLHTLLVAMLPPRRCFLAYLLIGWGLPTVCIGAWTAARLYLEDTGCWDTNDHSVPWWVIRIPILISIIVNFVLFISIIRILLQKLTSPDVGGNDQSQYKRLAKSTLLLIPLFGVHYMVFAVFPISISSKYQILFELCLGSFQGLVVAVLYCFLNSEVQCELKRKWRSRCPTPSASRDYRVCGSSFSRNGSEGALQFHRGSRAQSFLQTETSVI
Put plainly: cell-based or functional assay.

In data set [3] the target is T5, human VPAC2 receptor. Put plainly: filter binding assay, human VPAC2 membranes, displacement of 125I-VIP. As to the method: as §2, §3
Background: Loss of bound radioactivity is the signal in a displacement assay; it reports binding, not function.

For orientation: IC50 means the concentration needed to halve the response being measured. One may read the Vd/F as the volume of distribution divided by bioavailability. Consider “P348: cyclic PEGylated VPAC2 receptor peptide agonist (HSDAVFTENYTKLR[Aib]Q[Nle]AAKKYLNDLK[Aib]KGGPSSGAPPPC; not fully specified (residue 40); ends and bridges not checked; also: cyclic, bridge type and places not given here, PEGylated, site not placed) [Agonist P348]”, for which, in the data set with human PAC1, the IC50 was more than 25000 nM. In addition, in data set [1], the AUC0-last amounted to 1007 ng·h/mL, the Cl/F was found to be 1.5 mL/min/kg and the Vd/F stood at 2.224 L/kg. For the same molecule, the IC50 in the data set with human VPAC1 was more than 1500 nM.

On to “P257: cyclic PEGylated VPAC2 receptor peptide agonist (HSDAVFTENYTKL[Aib]KQ[Nle]AAKKYLNDLKKGGPSSGAPPPC; not fully specified (residue 39); ends and bridges not checked; also: cyclic, bridge type and places not given here, PEGylated, site not placed) [Agonist P257]”, for which the “% increase AUC (insulin, 0-10 min after glucose)” value with Normal Wistar rats (Dose 0.5 μg/kg) was “+14%”; in the data set with Normal Wistar rats (Dose 5 μg/kg), “+114%”; in the data set with Normal Wistar rats (Dose 15 μg/kg), “+158%”; in the data set with Normal Wistar rats (Dose 50 μg/kg), “+230%”. Further, the IC50 with human PAC1 is more than 3000 nM; with human VPAC1, more than 25000 nM. In data set [1], this molecule came in with an AUC0-last of 4396 ng·h/mL. This molecule also gave a Cl/F in data set [1] of 0.383 mL/min/kg. Further, the Vd/F in data set [1] turned out to be 0.425 L/kg.

Regarding HSDAVFTENYTKLRKQ[Nle]AAKKYLNDLKQGGPSSGAPPPC (ends and bridges not checked; also: further groups not given here) [P239 (cyclic PEGylated VPAC2 receptor peptide agonist)], the “EC50 for cAMP generation, DiscoveRx, CHO-PO cells” value (shortened to “EC50 … CHO-PO cells”) is 27.8 nM in the data set with rat VPAC1 receptor and 11.2 nM in the data set with rat VPAC2 receptor. Besides, in the data set with human VPAC2 receptor [2], the “EC50 for cAMP generation, Alpha screen” value was found to be 4.42 nM. In addition, the IC50 in the data set with human VPAC2 receptor [3] came to 8.33 nM.

B1: P201 (cyclic PEGylated VPAC2 receptor peptide agonist) (peptide)
peptide: HSDAVFTENYTKLRKQ[Nle]AAKKYLNDLKKGGPSSGAPPPC
modifications: not fully specified (residue 39); ends and bridges not checked; also: further groups not given here
For B1, the “EC50 … CHO-PO cells” value with rat VPAC1 receptor turned out to be 20.8 nM; with rat VPAC2 receptor, 13.2 nM. Besides, the “EC50 for cAMP generation, Alpha screen” value with human VPAC2 receptor [2] was 7.82 nM. For the same molecule, in the data set with human VPAC2 receptor [3], the half-inhibitory concentration (IC50) is 4.11 nM.

B2: P463 (cyclic PEGylated VPAC2 receptor peptide agonist) (peptide)
peptide: HSDAVFTENYT[Orn]LR[Aib]Q[Nle]AA[Orn]KYLNDL[Orn][Orn]GGPSSGAPPPC
modifications: also: cyclic by a side-chain bridge (lactam or disulfide), places not given here, PEGylated, site not given here
Consider B2, for which the “EC50 … CHO-PO cells” value came to 184 nM with rat VPAC1 receptor and 182 nM in the data set with rat VPAC2 receptor. Further, the “EC50 for cAMP generation, Alpha screen” value with human VPAC2 receptor [2] amounted to 365 nM. Besides, the IC50 with human VPAC2 receptor [3] is more than 100 nM.

With HSDAVFTENYTKL[Aib]KQ[Nle]AAKKYLNDLKQGGPSSGAPPPC (ends and bridges not checked; also: further groups not given here) [P255 (cyclic PEGylated VPAC2 receptor peptide agonist)], the “EC50 … CHO-PO cells” value with rat VPAC1 receptor is more than 350 nM; with rat VPAC2 receptor, 51.4 nM. Besides, in the data set with human VPAC2 receptor [2], the “EC50 for cAMP generation, Alpha screen” value amounted to 111 nM. In the data set with human VPAC2 receptor [3], the concentration for half-maximal inhibition (IC50) is more than 100 nM.

B3: P376 (cyclic PEGylated VPAC2 receptor peptide agonist) (peptide)
peptide: HSDAVFTENYT[Orn]LR[Aib]Q[Nle]AA[Orn]KYLNDL[Orn][Orn]GGPSSGAPPPC
modifications: not fully specified (residue 39); also: cyclic, bridge type and places not given here, PEGylated, site not placed
Consider B3, for which the “EC50 … CHO-PO cells” value with rat VPAC1 receptor was 48.4 nM; with rat VPAC2 receptor, 9.13 nM. The “EC50 for cAMP generation, Alpha screen” value with human VPAC2 receptor [2] worked out at 4.71 nM. In addition, the IC50 with human VPAC2 receptor [3] worked out at 4.89 nM.
